According to the supplement of paper PMC9170038:

System: MS2 coat protein
Experiment: apparent KD of MS2 coat protein; designed switch direction (-1 OFF switch, 1 ON switch): -1; higher = weaker reporter binding
Outline: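 Apparent KD, taken as the median over clusters for each design, was obtained by curve-fitting normalised cluster fluorescence. Designed RNA switches had been transcribed on Illumina chips by stalled E. coli RNA polymerase and titrated with SNAP-549-labelled MS2 coat protein, doubling from 0.7 or 1.5 nM to 3 µM.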

[1] = input ligand: microRNA oligo, concentration not stated
[2] = Eterna round: R95, input ligand: microRNA oligo, concentration not stated
[3] = Eterna round: R95, input ligand: FMN 200 uM
[4] = Eterna round: R95, input ligand: none

Sequence | apparent KD of MS2 coat protein (input ligand: FMN 200 uM) [nM] | apparent KD of MS2 coat protein [1] [nM] | apparent KD of MS2 coat protein (input ligand: none) [nM] | apparent KD of MS2 coat protein [2] [nM] | apparent KD of MS2 coat protein [3] [nM] | apparent KD of MS2 coat protein [4] [nM]
CACCGUUACUGAGGAUAUCUUACAUGAGGAUCACCCAUGUAAUAAAUGAGAAUUUCGGAUGUAUUAGAGAAGGCAGAAAUCGGC [Ostricism 61 - Jieux - Exclusion NG 2] (Eterna round: R96, puzzle: Exclusion NG 2) | 22.6 | 16.3 | 23.9 | – | – | –
CCCAUGUUAGGAUAUAUGGAAGGGCAGACGGGCGCCCUAAGGUAGAAGGAACAUGAGGAUCACCCAUGUAAUAA [Zausteesre] (Eterna round: R97, puzzle: Exclusion 4) | 113 | – | 67.3 | – | – | –
AGAGAGUCAGGAUAUGACGAAGAGAACAUGAGGAUCACCCAUGUAGCUUCGUAAUUAUCGUCAGAAGGGACGAACU [JR_Ex5_Sub089] (Eterna round: R97, puzzle: Exclusion 5) | 15.7 | – | 14.2 | – | – | –
AAUGAUUGAUGAGGAUAUUGUGGUGAAACACGACGAGAAGGCAUAUGUCACAUGAGGAUCACCCAUGUGAGCCUUGUGGAUAUA [Ex NG1 #66] (Eterna round: R96, puzzle: Exclusion NG 1) | 115 | 45.9 | 57.9 | – | – | –
ACAAGCAGAGAGUAAAUGGACAUGAGGAUCACCCAUGUGAGUCCAAGGAGAUAAGAUAUUAAAAAGGCUCGUCUUAU [AK-miRNA-r3-19] (Eterna round: R97, puzzle: Sensor, turn-off variant 1) | 112 | – | 98.3 | – | – | –
UCGCUGCGAGGAUAUACAUGAGGAUCACCCAUGUGCGGGUCCGGGUCUUUGUCCAUUAGUAGAAGGCGCAGUGA [JL Laongeedie mod 5] (puzzle: Exclusion 3) | – | – | – | 225 | – | –
AGCAUGGUAGGAUAUACGGAGCAUUAGGGUUUGUUGUGUGGACAUGAGGAUCACCCAUGUAGAAGGGCCGUGCA [Mat - Exclusion 2 - Mod of JL - D83] (puzzle: Exclusion 2) | – | – | – | 33.5 | – | –
GGUACUAUCACCUGAGUGGUAGUGCAACAAGCUUGUGAUACAUGAGGAUCACCCAUGUCCUCAUUUGCUCGUCUUAU [JL-sv3-2.25 JL mod] (puzzle: Sensor v3, turn-off variant 2) | – | – | – | 1070 | 209 | 217
UUUUGCUCAGGAUAUACAUGAGGAUCACCCAUGUAUAUUGAAAAUAAUACAUGGGAAUGUAGAAGGGAGCUCAU [Omei Ex3 Pseudoloop 20] (Eterna round: R97, puzzle: Exclusion 3) | 127 | – | 168 | – | – | –
UUCCUACUUGAGGAUCACCCAAGUCAGGAUAUCCAUAACCGACACUCUUUUCGGAGCGGGAGAAGGGACUUGGC [Arbedi] (Eterna round: R97, puzzle: Exclusion 1) | 119 | – | 52.9 | – | – | –
CUAGCGAUUGUAGGAUAUCGGACUGUUUCAGUCUGAGAAGGACAUGAGGAUCACCCAUGUGAAGCUACGUGAGUAGCACGCUAG [JL ENG1 3.84] (Eterna round: R96, puzzle: Exclusion NG 1) | 46.1 | 15.4 | 24.5 | – | – | –
CCUGGGUCAUCGCCCAGGAACAACAUGAGGAUCACCCAUGUCUAGGAUAUCCACCAGUCAAUAAAGGAGAAGGAGACGGUGGUU [Enusonor] (Eterna round: R96, puzzle: Exclusion NG 3) | 22.9 | 14.6 | 21.2 | – | – | –
GGUUGGCGAGGAUAUACAUGAGGAUCACCCAUGUGAGAGAAAAAAGUGCGGAAGAAAAGUAGAAGGCGCUGACG [salish99_ex3_r3_029] (puzzle: Exclusion 3) | – | – | – | 25.1 | 82.7 | 25.7
AGCUGUGGCCGAGGAUAUCUAACUUCAAUAACCGAAAUAUAAUCGGACAUGAGGAUCACCCAUGUAGAGAAGGCGGUCUCAGCA [Eli eng2 - 082] (Eterna round: R96, puzzle: Exclusion NG 2) | – | 10.7 | – | – | – | –
GAAAAGGUAGGAUAUACGAAAAAAAAGGCUAGAAAAAAAACACAUGAGGAUCACCCAUGUAGAAGGACCAAAAG [salish99_ex2_r3_068] (puzzle: Exclusion 2) | – | – | – | 28.8 | 28.7 | 24
GGAUAAAAUCGAGGAUAUACGCACCACUAACGAGUAGAAGGCGAACAUGAGGAUCACCCAUGUGAGUUCUCAAUAAGAAACACG [Prohibition 68 - Jieux - Exclusion NG 1] (Eterna round: R96, puzzle: Exclusion NG 1) | 40.5 | 23.9 | 35.1 | – | – | –
GAUUAUGCGAGCUUUAGGGACAUGAGGAUCACCCAUGUUCGUCUUAUUGGUCUGGAUGCGCUAACAUACCUAAAUCU [JMF 46] (puzzle: Sensor v3, turn-off variant 1) | – | – | – | 31.7 | 22.4 | 22.6
